Reference: patent publication US20120129720, “APTAMER THAT RECOGNIZES PEPTIDE” (KANAGAWA PREFECTURAL HOSPITAL ORGANIZATION, published 2012)

T1: His-MIF (His-tag/T7 gene 10 leader/Xpress-MIF fusion) (UniProt P14174 P14174:1-115)
T1 chain: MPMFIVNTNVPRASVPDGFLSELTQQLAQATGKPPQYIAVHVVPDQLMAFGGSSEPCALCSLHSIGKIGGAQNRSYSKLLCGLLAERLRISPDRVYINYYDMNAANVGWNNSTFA

B1: X region SEQ 2317 (ssRNA)
RNA: GGGACGCUCACGUACGCUCAGGUUGAUCCCGUUCUUCUUGACUGGCGCCUUCAUGGAGUGUCAGUGCCUGGACGUGCAGU
modifications: 3' A20 tail for capture
B2: X region SEQ 2316 (ssRNA)
RNA: GGGACGCUCACGUACGCUCACAACUUGUAUUGUCCGGGUGUACUGUACCGAAACUCGUGAUCAGUGCCUGGACGUGCAGU
modifications: 3' A20 tail for capture
B3: X region SEQ 2333 (ssRNA)
RNA: GGGACGCUCACGUACGCUCAAAUGACCCCGAUUCCCCUUUCGUGUUGUCUGAUCGCAGGCUCAGUGCCUGGACGUGCAGU
modifications: 3' A20 tail for capture
B4: X region SEQ 2326 (ssRNA)
RNA: GGGACGCUCACGUACGCUCAGGCUACUGGUCAGAGGUUUCCAGCAGAUUUCCUGCCUAAAUCAGUGCCUGGACGUGCAGU
modifications: 3' A20 tail for capture
B5: X region SEQ 2315 (ssRNA)
RNA: GGGACGCUCACGUACGCUCAACCCGCGACUAGGUUUUCCUGGCGACCGUCCGGUAGUGUCAGUGCCUGGACGUGCAGU
modifications: 3' A20 tail for capture
B6: X region SEQ 2310 (ssRNA)
RNA: GGGACGCUCACGUACGCUCAUGGUGGAUUGGUGCAUCUAUGUCUUCUUACUUGUUAUCAGUGCCUGGACGUGCAGU
modifications: 3' A20 tail for capture
B7: X region SEQ 2343 (ssRNA)
RNA: GGGACGCUCACGUACGCUCACUGUGCUCGGAUUUCAUCCGGGUCCUAUACUUCUACUAUAUCAGUGCCUGGACGUGCAGU
modifications: 3' A20 tail for capture
B8: X region SEQ 2341 (ssRNA)
RNA: GGGACGCUCACGUACGCUCAUGUCCGCUGUUAAAGAUCGCGACUCUGGGCCCUGAUCGAUUCAGUGCCUGGACGUGCAGU
modifications: 3' A20 tail for capture
B9: X region SEQ 2342 (ssRNA)
RNA: GGGACGCUCACGUACGCUCAUGACAUCUGAGGCUUUUUUCUUGGGGAAUUUUCCGAGACCUCAGUGCCUGGACGUGCAGU
modifications: 3' A20 tail for capture
B10: X region SEQ 2314 (ssRNA)
RNA: GGGACGCUCACGUACGCUCAAACUUGAUCCUGGUUUCCAGCAGUAUGCCGCGUGAUUUCGUCAGUGCCUGGACGUGCAGU
modifications: 3' A20 tail for capture
B11: X region SEQ 2309 (ssRNA)
RNA: GGGACGCUCACGUACGCUCACUGGGCGACUAGGUGUACUGGCUAUCACGUUCUGGAUAAGUCAGUGCCUGGACGUGCAGU
modifications: 3' A20 tail for capture
B12: X region SEQ 2331 (ssRNA)
RNA: GGGACGCUCACGUACGCUCAGAGUCGUUAUCUCCUGUACUAAUCACCUACUGAUCGAGCAUCAGUGCCUGGACGUGCAGU
modifications: 3' A20 tail for capture
B13: X region SEQ 2337 (ssRNA)
RNA: GGGACGCUCACGUACGCUCAUCGUCGUAGGCGUACUGAUCGAAUCGUACUUACUAUUGCGUCAGUGCCUGGACGUGCAGU
modifications: 3' A20 tail for capture
B14: X region SEQ 2330 (ssRNA)
RNA: GGGACGCUCACGUACGCUCACGCUUUAAUGAUCUGAUCGUGCUUCGCUGCGUAGUAUUGGUCAGUGCCUGGACGUGCAGU
modifications: 3' A20 tail for capture
B15: X region SEQ 2345 (ssRNA)
RNA: GGGACGCUCACGUACGCUCAUAUGUUCGACUUAAUUUGAUCUGCAUGUUUGUCUCCGGGCUCAGUGCCUGGACGUGCAGU
modifications: 3' A20 tail for capture
B16: X region SEQ 2319 (ssRNA)
RNA: GGGACGCUCACGUACGCUCAAAAGUUUUGCACGUUCUCCCGGUGUCCUGGCGCUUGGCUGUCAGUGCCUGGACGUGCAGU
modifications: 3' A20 tail for capture
B17: X region SEQ 2325 (ssRNA)
RNA: GGGACGCUCACGUACGCUCAUACUUCCGGGUGUACUGUAAGCCCUACGCUGGAGGGGCUCUCAGUGCCUGGACGUGCAGU
modifications: 3' A20 tail for capture
B18: X region SEQ 2324 (ssRNA)
RNA: GGGACGCUCACGUACGCUCAUGGUGUACUGUACCUAUUCGACACUUCUGUUGAUUAGUGAUCAGUGCCUGGACGUGCAGU
modifications: 3' A20 tail for capture
B19: X region SEQ 2338 (ssRNA)
RNA: GGGACGCUCACGUACGCUCAUGAGACUGAUCGUGACAACUCCUGUAUGUUCGAUCUCAUCUCAGUGCCUGGACGUGCAGU
modifications: 3' A20 tail for capture
B20: X region SEQ 2336 (ssRNA)
RNA: GGGACGCUCACGUACGCUCAUCGAUUAGAAUACUCUUUGUGCGCCGUCGGCCUGAUCGUUCAGUGCCUGGACGUGCAGU
modifications: 3' A20 tail for capture
B21: X region SEQ 2344 (ssRNA)
RNA: GGGACGCUCACGUACGCUCAGUCCAUUUUCGUCGUGUAAUUUCGGCAACGGUUCCGGGGAUCAGUGCCUGGACGUGCAGU
modifications: 3' A20 tail for capture
B22: X region SEQ 2318 (ssRNA)
RNA: GGGACGCUCACGUACGCUCAACUCCCUCUUUCGCGGGCUCCUUUCCGCAACACGACUGGCUCAGUGCCUGGACGUGCAGU
modifications: 3' A20 tail for capture
B23: X region SEQ 2329 (ssRNA)
RNA: GGGACGCUCACGUACGCUCAAAACCUGUGCUGAUCGCUGUUGGACAGUUCUACAUGCGCAUCAGUGCCUGGACGUGCAGU
modifications: 3' A20 tail for capture
B24: X region SEQ 2321 (ssRNA)
RNA: GGGACGCUCACGUACGCUCAGCACUGCUUACGGGGUCUCCGGCAGUAUGCCCUGGUGUAUUCAGUGCCUGGACGUGCAGU
modifications: 3' A20 tail for capture
B25: X region SEQ 2340 (ssRNA)
RNA: GGGACGCUCACGUACGCUCAUGUAUUUCUGUUAGUGCUCGGUCCUGCUGAUCGGUUAGACUCAGUGCCUGGACGUGCAGU
modifications: 3' A20 tail for capture
B26: X region SEQ 2311 (ssRNA)
RNA: GGGACGCUCACGUACGCUCAAGACGGUGUACUGGCACUUUUACUUCAUUGAGUAGAAAUUCGUCAGUGCCUGGACGUGCAGU
modifications: 3' A20 tail for capture
B27: X region SEQ 2347 (ssRNA)
RNA: GGGACGCUCACGUACGCUCAUUUUUCCUCUUUGCCCUAUGUUUGGGCGACGCAUCCGGGUUCAGUGCCUGGACGUGCAGU
modifications: 3' A20 tail for capture
B28: X region SEQ 2322 (ssRNA)
RNA: GGGACGCUCACGUACGCUCAGUUGGUUGCUGUGCAGUCUGGGUGUCUUGGCUUUCGGAUGUCAGUGCCUGGACGUGCAGU
modifications: 3' A20 tail for capture
B29: X region SEQ 2346 (ssRNA)
RNA: GGGACGCUCACGUACGCUCAUGUUCCGGGCCGACUGGCUGUUAGAGAUCUCUGAUGUAGGUCAGUGCCUGGACGUGCAGU
modifications: 3' A20 tail for capture
B30: X region SEQ 2332 (ssRNA)
RNA: GGGACGCUCACGUACGCUCAUUAGACGUUCUCUACGUCCGUGCCGCCCUGAUCGAGCGACUCAGUGCCUGGACGUGCAGU
modifications: 3' A20 tail for capture
B31: X region SEQ 2320 (ssRNA)
RNA: GGGACGCUCACGUACGCUCAGACGUUCAAGUAAAUUGGCCCUAUAUUUCGUUAUAGUAUGUCAGUGCCUGGACGUGCAGU
modifications: 3' A20 tail for capture
B32: X region SEQ 2313 (ssRNA)
RNA: GGGACGCUCACGUACGCUCAGGUGUACUGUAACCUGCCUGCCACCUGCGGCUUCGCGGACUCAGUGCCUGGACGUGCAGU
modifications: 3' A20 tail for capture
B33: X region SEQ 2339 (ssRNA)
RNA: GGGACGCUCACGUACGCUCAUGCUGAUCGUUCGGUGAAUCAUUUCCUUACCUACCUACGUUCAGUGCCUGGACGUGCAGU
modifications: 3' A20 tail for capture
B34: X region SEQ 2323 (ssRNA)
RNA: GGGACGCUCACGUACGCUCACUACAAUAAUAUUACCCCUUGUUUUCGUUUAGUCCGGGUUUCAGUGCCUGGACGUGCAGU
modifications: 3' A20 tail for capture
B35: X region SEQ 2328 (ssRNA)
RNA: GGGACGCUCACGUACGCUCAAAUUGUCUUCGCGUUGUCUUGAAUGGGUAAUAGUAGACGAUCAGUGCCUGGACGUGCAGU
modifications: 3' A20 tail for capture
B36: X region SEQ 2334 (ssRNA)
RNA: GGGACGCUCACGUACGCUCACACCUAGAGCCUGAACUGCCUAAGCGCUGAUCGGCAUUUAUCAGUGCCUGGACGUGCAGU
modifications: 3' A20 tail for capture
B37: X region SEQ 2327 (ssRNA)
RNA: GGGACGCUCACGUACGCUCAAGACUCCUGUGUUUCGGGUGUACUGUCACGAUUCGUUGUCUCAGUGCCUGGACGUGCAGU
modifications: 3' A20 tail for capture
B38: X region SEQ 2335 (ssRNA)
RNA: GGGACGCUCACGUACGCUCACAGGCUGAUCGCUUCUUUACGUCUAAGUAUUGACUUUAGCUCAGUGCCUGGACGUGCAGU
modifications: 3' A20 tail for capture
B39: #743 (ssRNA)
RNA: GGGACGCUCACGUACGCUCAACACUUGCUUUUUCUUGUCCGGGUUUAUUGGUCGUUGUAUUCAGUGCCUGGACGUGCAGU
modifications: 3' A20 tail for capture
B40: #730 (ssRNA)
RNA: GGGACGCUCACGUACGCUCAUUCGACCGGGUUAUUGGCUGCUCUCCUCUGGUUUGUGAUGUCAGUGCCUGGACGUGCAGU
modifications: 3' A20 tail for capture

Molecular target: T1, His-MIF (His-tag/T7 gene 10 …)
Experiment: SPR; data not shown
Conditions: MIF 115 aa; ATGen

Binding result, binds:
B1
B2
B3
B4
B5
B6
B7
B8
B9
B10
B11
B12
B13
B14
B15
B16
B17
B18
B19
B20
B21
B22
B23
B24
B25
B26
B27
B28
B29
B30
B31
B32
B33
B34
B35
B36
B37
B38

Molecular target: T1, His-MIF (His-tag/T7 gene 10 …)
Experiment: SPR; 600 nM His-MIF; data not shown
Conditions: MIF 115 aa; ATGen

Binding result, binds:
B39
B40
